From publication PMC8523169, “Competitive binding of MatP and topoisomerase IV to the MukB hinge domain” come the findings set out here.

Positions count from the first letter of the chain named.

The target of series [1] is T1, MatP4E (Escherichia coli, UniProt P0A8N0 1-132, K71E;Q72E;R75E;R77E).
T1 sequence: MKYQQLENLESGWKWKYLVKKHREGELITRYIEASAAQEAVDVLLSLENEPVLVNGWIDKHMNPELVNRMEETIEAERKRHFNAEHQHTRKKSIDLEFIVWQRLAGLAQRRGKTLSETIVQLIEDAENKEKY
In words: EMSA (native PAGE); 1 mM Mg2+; Native PAGE: 50 mM HEPES pH 7.5, 100 mM NaCl, 1 mM MgCl2, 1 mM DTT, 10% glycerol, on ice 30 min; FCS: 20 mM Tris-HCl pH 7.5, 50 mM NaCl, 0.3 mg/mL BSA, 2 mM DTT, 0.05% Tween-20, 22 °C; nMS buffer not given in the material. Conditions: protein: recombinant; tags: C-terminal 6xHis; chain copies: 2; blunt.

The target of series [2] is T2, MatP (MatPΔ18C) (Escherichia coli, UniProt P0A8N0 1-132).
T2 sequence: T1 sequence with E71K, E72Q, E75R, E77R
In words: native MS; Native PAGE: 50 mM HEPES pH 7.5, 100 mM NaCl, 1 mM MgCl2, 1 mM DTT, 10% glycerol, on ice 30 min; FCS: 20 mM Tris-HCl pH 7.5, 50 mM NaCl, 0.3 mg/mL BSA, 2 mM DTT, 0.05% Tween-20, 22 °C; nMS buffer not given in the material. The following applies: protein: recombinant; tags: C-terminal 6xHis; chain copies: 2; blunt.

B1: 50 bp nonspecific DNA (dsDNA)
DNA 1: CAGAGTTAATCACAACGGTTCTCGATCATCAAAGAAAAACAAGCTGTGCG
DNA 2: CGCACAGCTTGTTTTTCTTTGATGATCGAGAACCGTTGTGATTAACTCTG
Regarding B1, the binding result in series [1] was “no binding”.

B2: 50 bp matS DNA (dsDNA)
DNA 1: CAGAGTTAATCAGAACGGTGACAATGTCACAAAGAAAAAGAACCTGTGCG
DNA 2: CGCACAGGTTCTTTTTCTTTGTGACATTGTCACCGTTCTGATTAACTCTG
As for B2, the binding result in series [2] is recorded as “binds”; in series [1], “no binding”.
